Data published in patent US20160009819A1 (SHIONOGI, published 2016).
Positions count from the first letter of the chain named.

T1: mouse EL with C2 tag (mouse, UniProt Q9WVG5 21-500)
T1 construct: Heparin extract of transfected HEK293F cells; also called mouse E1; not shown: C2 tag
T1 sequence (looked up): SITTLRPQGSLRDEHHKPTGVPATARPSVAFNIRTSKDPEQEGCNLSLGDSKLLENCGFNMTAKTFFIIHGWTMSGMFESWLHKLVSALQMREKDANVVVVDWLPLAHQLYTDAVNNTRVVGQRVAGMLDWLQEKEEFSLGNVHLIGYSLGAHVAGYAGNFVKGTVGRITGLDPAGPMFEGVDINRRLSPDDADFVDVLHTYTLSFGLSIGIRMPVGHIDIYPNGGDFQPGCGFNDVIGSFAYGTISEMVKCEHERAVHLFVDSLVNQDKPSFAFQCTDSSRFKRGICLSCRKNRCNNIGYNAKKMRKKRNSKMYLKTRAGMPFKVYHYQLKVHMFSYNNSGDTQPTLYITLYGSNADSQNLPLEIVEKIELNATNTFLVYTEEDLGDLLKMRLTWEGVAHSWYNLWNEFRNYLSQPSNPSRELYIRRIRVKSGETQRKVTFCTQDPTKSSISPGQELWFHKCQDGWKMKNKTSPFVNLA

T2: baboon EL (vascular endothelial lipase) with C2 tag (baboon, UniProt Q9Y5X9 21-500 (human entry), limits assumed)
T2 construct: also called baboon EL-C2 tag
T2 chain: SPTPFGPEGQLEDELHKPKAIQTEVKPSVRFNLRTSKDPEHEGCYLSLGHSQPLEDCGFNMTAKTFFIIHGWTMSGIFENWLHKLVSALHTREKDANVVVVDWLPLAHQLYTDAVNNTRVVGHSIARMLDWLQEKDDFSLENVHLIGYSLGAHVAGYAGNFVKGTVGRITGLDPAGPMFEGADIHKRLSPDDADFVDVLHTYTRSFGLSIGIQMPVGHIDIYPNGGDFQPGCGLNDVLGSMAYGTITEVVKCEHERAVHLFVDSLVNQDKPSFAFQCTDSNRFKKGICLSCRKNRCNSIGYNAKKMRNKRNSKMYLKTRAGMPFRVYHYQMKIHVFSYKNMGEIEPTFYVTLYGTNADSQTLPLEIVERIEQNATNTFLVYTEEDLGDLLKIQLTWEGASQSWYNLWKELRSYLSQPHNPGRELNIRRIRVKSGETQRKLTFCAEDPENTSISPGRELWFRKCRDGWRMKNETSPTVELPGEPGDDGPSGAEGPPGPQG

T3: human [1-305]-mouse chimeric EL with C2 tag (human; mouse, UniProt Q9WVG5 306-500)
T3 construct: Heparin extract of transfected HEK293F cells; probably 97; Built here from the name of the chimera; not shown: C2 tag
T3 sequence: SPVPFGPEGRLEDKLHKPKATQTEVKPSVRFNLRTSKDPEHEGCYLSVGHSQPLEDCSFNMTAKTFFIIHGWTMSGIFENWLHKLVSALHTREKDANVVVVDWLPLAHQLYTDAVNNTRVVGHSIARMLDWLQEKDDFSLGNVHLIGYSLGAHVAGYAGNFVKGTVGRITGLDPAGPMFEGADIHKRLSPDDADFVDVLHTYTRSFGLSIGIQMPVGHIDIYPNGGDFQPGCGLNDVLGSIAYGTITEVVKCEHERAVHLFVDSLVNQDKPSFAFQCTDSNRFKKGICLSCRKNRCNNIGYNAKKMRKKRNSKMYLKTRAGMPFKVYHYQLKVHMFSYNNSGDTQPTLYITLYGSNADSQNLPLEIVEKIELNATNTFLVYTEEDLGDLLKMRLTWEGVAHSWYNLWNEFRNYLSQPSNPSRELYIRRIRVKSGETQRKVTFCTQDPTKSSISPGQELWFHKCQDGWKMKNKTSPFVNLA

T4: human [1-157]-mouse chimeric EL with C2 tag (human; mouse, UniProt Q9WVG5 158-500)
T4 construct: Heparin extract of transfected HEK293F cells; shifted by one: 4); Built here from the name of the chimera; not shown: C2 tag
T4 sequence: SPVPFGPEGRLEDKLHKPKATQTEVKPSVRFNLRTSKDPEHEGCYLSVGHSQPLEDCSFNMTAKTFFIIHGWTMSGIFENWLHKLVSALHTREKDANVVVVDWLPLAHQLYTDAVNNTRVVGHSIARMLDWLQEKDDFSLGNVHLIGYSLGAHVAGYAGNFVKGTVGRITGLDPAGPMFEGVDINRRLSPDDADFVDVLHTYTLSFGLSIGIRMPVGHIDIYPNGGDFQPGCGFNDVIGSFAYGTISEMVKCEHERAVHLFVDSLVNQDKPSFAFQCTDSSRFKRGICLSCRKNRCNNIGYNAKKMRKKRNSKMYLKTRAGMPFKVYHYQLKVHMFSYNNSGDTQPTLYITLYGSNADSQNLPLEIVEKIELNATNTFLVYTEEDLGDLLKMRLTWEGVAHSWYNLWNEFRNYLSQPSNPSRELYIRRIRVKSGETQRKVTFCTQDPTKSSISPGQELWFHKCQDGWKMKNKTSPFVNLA

B1: 16B3 antibody (antibody, V domains shown)
VH: DVKLVESGGGLVQPGGSLKLSCTASGFTFSGYTMSWVRQTPEKRLELVAEISFARDRAFYPDTVKGRFTISRDNAKNTLYLQMSSLKSEDTAMYYCTRLGGRNHDYWYFDVWGTGTTVTVSS
VL: DIVLTQSPTSLAVSPGQRATISCRASESVEYYGTSLMQWYQQKPGQRPQLLIYAASNVESGVPARFSGSGSGTDFSLNIHPVEEDDIAVYFCQQSWKVPFTFGSGTKLEIK
notes: Mouse hybridoma antibody, IgG2a
B2: 16E7 antibody (antibody, V domains shown)
VH: B1 VH with D1E, T23A, G31S, A54T, D56S, T97A, R102N, H104Y
VL: B1 VL with P15L, Q49K, V89M
notes: Mouse hybridoma antibody, IgG1
B3: 53A11 antibody (antibody, V domains shown)
VH: EVQLQQSGPELLKPGASVKISCKASGYTFTDYTMHWVKQSHGKSLEWIGGINPYYGGTTYNEKFKDKATLTVDKSSSTAYMELRSLTSEDSAVYYCAKGDYYGGSYNYWGQGTTLTVSS
VL: DIVLTQSLATLSVTPGDSVSLSCRASQDISNSLHWYQQKSHESPRLLIKYASQSISGIPSRFSGSGSGTDFTLSINSVETEDFGMYFCQQSNSWPYTFGGGTKLEIK
notes: as for B1
B4: 13B3 antibody (antibody, V domains shown)
VH: EVQLQQSGPELLKPGASVKISCKASGYTFTEYTMHWVKQSHGKSLEWIGSINPYYGGTSYNEKFKDKATLTVDKSSNTAYMEFRSLTSEDCAVYYCARYGNYVGYFDYWGQGTTLTVSS
VL: ENVLTQSPAIMSASLGEKVTMSCRASSSVHYMYWYQQKSDASPKLWIYYTSNLAPGVPDRFSGSGSGNSYSLTISSMEGEDAATYYCQQFTSSPYTFGGGTKLEIK
notes: as for B1
B5: 23H8 antibody (antibody, V domains shown)
VH: EVQLQQSGPELLKPGASVKISCKASGYTFTDNTIHWVKQSHGKSLEWIGHINPYYGGTNNNEKFKDKATLTVDKSSSTAYMELRSLTSEDSAIYYCARKGIYYSSPFDYWGQGTTLTVSS
VL: DIQMTQTTSSLSASLGDRVTISCRASQDINNYLNWYQQKPDGTVKLLISYTSKLHSGVPSRFSGSGSGTDYSLTISNLEREDFATYFCQQGNTLPFTFGSGTNLEIK
notes: as for B1
B6: 19E7 antibody (antibody, V domains shown)
VH: QVQLQQPGSVLVRPGASVKLSCKASGYTFTTYWMHWVKQRPGQGLEWIGEIHPYSGNNNNNEKFKGKATLTVDTSSSTAYVDLSRLTSEDSAVYYCARYDSNYVFAYWGQGTLVTVSA
VL: QIVLTQSPAIMSASPGEGVTITCSASSSVSYMHWFQQKPGTSPKLWIYSTSNLASGVPARFSGSGSGTSYSLTISRMEAEDAATYYCQQRDSYLTFGSGTKLEVK
notes: as for B1
B7: 55A1 antibody (antibody, V domains shown)
VH: QIHLVQSGPELKKPGETVKISCKASGYTFTNYGMNWVKQAPGKGLKWMGWINTYSGVPTYAGDFKGRFAFSLETSASTAYLQINNLKNEDTATYFCARRGYYGRRYFDVWGTGTTVTVSS
VL: DIVLTQSPASLAVSLGQRATISCKASQSVDYDVDSYMHWYQQKPGQPPKLLIYAASNLASGIPARFSGGGSGTDFTLNIHPVEEEDVATYYCQQTIEDPPTFGGGTKLEIK
notes: as for B1
B8: 14A1 antibody (antibody, V domains shown)
VH: QIQLVQSGPELKKPGETVKISCKASGYTFTNYGMNWVKQAPGKGLKWMGWINTYSGVPTYADDFKGRFAFSLETSASTAYLQINNFKNEDTATYFCARFSYYGRHYFDYWGQGTALTASS
VL: DIVLTQSPASLAVSLGQRATISCKASQSVDYDGDSYMNWYQQKPGQPPKLLIYAASNLKSGIPARFSGSGSGTDFTLNIHPVEEEDAATYYCQQTTDDPPWTFGGGTKLEIK
notes: as for B2
B9: 2D5 antibody (antibody, V domains shown)
VH: B8 VH with A61T, Y80F, F86L, A115T, A118V
VL: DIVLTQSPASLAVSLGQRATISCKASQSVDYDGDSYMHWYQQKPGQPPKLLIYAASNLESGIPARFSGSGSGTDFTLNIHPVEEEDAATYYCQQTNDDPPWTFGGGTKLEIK
notes: as for B1
B10: 7D4 antibody (antibody, V domains shown)
VH: B8 VH with G44D, F86L, A115T, A118V
VL: B8 VL with K49Q, K59G, Q93H, T95S
notes: as for B2

Key:
[1] = target: T1, mouse EL with C2 tag; experiment: ELISA: antibody captured on anti-mouse IgG-Fc plate, C2-tagged EL heparin extract added, anti-C2-tag detection, A450 (Example 8)
Experimental: (§1) Assay buffer containing 15 μl of anti-EL antibody was added to anti-mouse IgG-Fc antibody-immobilized microtiter plate, and incubated for 2 hr. […] After washing the wells three times with 90 μL, of washing buffer, 15 μl of assay buffer containing biotin-labeled anti-C2-tag antibody and HRP-labeled Streptavidin were added to the wells and incubated at room temperature for 1 hr. After washing the wells three times with 90 μL of washing buffer, 15 μL of TMB+-Substrate-Chromogen (DAKO) was added and incubated at room temperature for 30 min and then 15 μL of 0.05 M H2SO₄ was added and absorbance at 450 nm was measured (FIG. 3A-3K).

[2] = target: T2, baboon EL (vascular endothelial lipase) …; experiment: as above
Experimental: as §1

[3] = target: T3, human [1-305]-mouse chimeric EL with C2 …; experiment: SPR (Biacore), EL captured by anti-C2-tag antibody on CM5 chip, antibody injected, bivalent fit
Experimental: (§2) The binding affinities of anti-EL antibodies were measured using Biacore. […] Then, anti-EL antibodies were added and the binding affinities were calculated by bivalent fitting of BIAevaluation software.

[4] = target: T4, human [1-157]-mouse chimeric EL with C2 …; experiment: ELISA: antibody captured on anti-mouse IgG-Fc plate, C2-tagged EL heparin extract added, anti-C2-tag detection, A450 (Example 8)
Experimental: as §1

[5] = target: T2, baboon EL (vascular endothelial lipase) …; experiment: SPR (Biacore), EL captured by anti-C2-tag antibody on CM5 chip, antibody injected, bivalent fit
Experimental: as §2

| Binder | binding result [1] | further results |
| --- | --- | --- |
| B1 | no binding (tested: about 300 ng/mL) | – |
| B2 | – | EC50 (read off the curve) [2]: ~10 ng/mL; kon [3]: 950000 M⁻¹ s⁻¹ |
| B3 | no binding (tested: about 300 ng/mL) | – |
| B4 | no binding (tested: about 300 ng/mL) | – |
| B5 | no binding (tested: about 300 ng/mL) | – |
| B6 | no binding (tested: about 300 ng/mL) | binding result [4]: no binding (tested: about 300 ng/mL); kon [5]: 67000 M⁻¹ s⁻¹ |
| B7 | no binding (tested: about 300 ng/mL) | – |
| B8 | no binding (tested: about 300 ng/mL) | – |
| B9 | no binding (tested: about 300 ng/mL) | – |
| B10 | no binding (tested: about 300 ng/mL) | – |
